Values of other authors in patent US7449311B2, “Method of producing macedocin by culturing Streptococcus macedonicus” (Vrije Universiteit Brussel, priority 2001, dated 2008).
Like-named read-outs stand apart in the source and are kept apart here.

In the case of “SA-FF22: lantibiotic isolated from pathogenic Streptococcus pyogenes FF22 (SEQ ID NO 2) (GKNGVFKTISHECHLNTWAFLATCCS; Streptococcus pyogenes)”, the loss of activity (at a pH of 7 (Tagg et al., 1978)) is given as 50% and the loss of activity (stored for 4 weeks at room temperature (Tagg et al., 1973)) is given as 75%.
